From the MegaScale stability set (Tsuboyama et al. 2023)

B1: HEEH_KT_rd6_0007 (parent)
chain: SIEEEIKKAEEAKEKGKTFIHGDFVATTEELLDELLKRLRKKL

Variants of: B1
Assay: folding stability dG (cDNA display proteolysis); higher = more stable
Conditions: PBS, room temperature

| Variant | folding stability dG [kcal/mol] |
| --- | --- |
| SIEEENKKAEEAKEKGKTFIHGDFVATTEELLDELLKRLRKKL [I6N] | 0.587 |
| SIEEEPKKAEEAKEKGKTFIHGDFVATTEELLDELLKRLRKKL [I6P] | 0.487 |
| SIEEERKKAEEAKEKGKTFIHGDFVATTEELLDELLKRLRKKL [I6R] | 0.719 |
| SIESEIKKAEEAKEKGKTFIHGDFVATTEELLDELLKRLRKKL [E4S] | 1.12 |
| SIEDEIKKAEEAKEKGKTFIHGDFVATTEELLDELLKRLRKKL [E4D] | 1.27 |
| SIEYEIKKAEEAKEKGKTFIHGDFVATTEELLDELLKRLRKKL [E4Y] | 1.06 |
| SIEHEIKKAEEAKEKGKTFIHGDFVATTEELLDELLKRLRKKL [E4H] | 1.06 |
| SIEPEIKKAEEAKEKGKTFIHGDFVATTEELLDELLKRLRKKL [E4P] | 0.777 |
| SIEQEIKKAEEAKEKGKTFIHGDFVATTEELLDELLKRLRKKL [E4Q] | 1.11 |
| SIEGEIKKAEEAKEKGKTFIHGDFVATTEELLDELLKRLRKKL [E4G] | 0.862 |
| SIEIEIKKAEEAKEKGKTFIHGDFVATTEELLDELLKRLRKKL [E4I] | 1.03 |
| SIETEIKKAEEAKEKGKTFIHGDFVATTEELLDELLKRLRKKL [E4T] | 0.909 |
| SIELEIKKAEEAKEKGKTFIHGDFVATTEELLDELLKRLRKKL [E4L] | 1.21 |
| SIEFEIKKAEEAKEKGKTFIHGDFVATTEELLDELLKRLRKKL [E4F] | 1.03 |
| SIECEIKKAEEAKEKGKTFIHGDFVATTEELLDELLKRLRKKL [E4C] | 1.78 |
| SIEMEIKKAEEAKEKGKTFIHGDFVATTEELLDELLKRLRKKL [E4M] | 1.26 |
| SIENEIKKAEEAKEKGKTFIHGDFVATTEELLDELLKRLRKKL [E4N] | 1.02 |
| SIEVEIKKAEEAKEKGKTFIHGDFVATTEELLDELLKRLRKKL [E4V] | 0.909 |
| SIEAEIKKAEEAKEKGKTFIHGDFVATTEELLDELLKRLRKKL [E4A] | 1.25 |
| SIEREIKKAEEAKEKGKTFIHGDFVATTEELLDELLKRLRKKL [E4R] | 1.07 |

| Variant | folding stability dG [kcal/mol] |
| --- | --- |
| SIEKEIKKAEEAKEKGKTFIHGDFVATTEELLDELLKRLRKKL [E4K] | 1 |
| SIEWEIKKAEEAKEKGKTFIHGDFVATTEELLDELLKRLRKKL [E4W] | 1.27 |
| SIEEGIKKAEEAKEKGKTFIHGDFVATTEELLDELLKRLRKKL [E5G] | 0.897 |
| SIEEAIKKAEEAKEKGKTFIHGDFVATTEELLDELLKRLRKKL [E5A] | 2.05 |
| SIEEQIKKAEEAKEKGKTFIHGDFVATTEELLDELLKRLRKKL [E5Q] | 1.61 |
| SIEEYIKKAEEAKEKGKTFIHGDFVATTEELLDELLKRLRKKL [E5Y] | 1.56 |
| SIEEFIKKAEEAKEKGKTFIHGDFVATTEELLDELLKRLRKKL [E5F] | 1.74 |
| SIEEWIKKAEEAKEKGKTFIHGDFVATTEELLDELLKRLRKKL [E5W] | 2.01 |
| SIEERIKKAEEAKEKGKTFIHGDFVATTEELLDELLKRLRKKL [E5R] | 1.09 |
| SIEEHIKKAEEAKEKGKTFIHGDFVATTEELLDELLKRLRKKL [E5H] | 1.11 |
| SIEEPIKKAEEAKEKGKTFIHGDFVATTEELLDELLKRLRKKL [E5P] | 0.677 |
| SIEENIKKAEEAKEKGKTFIHGDFVATTEELLDELLKRLRKKL [E5N] | 1.05 |
| SIEEKIKKAEEAKEKGKTFIHGDFVATTEELLDELLKRLRKKL [E5K] | 1.06 |
| SIEESIKKAEEAKEKGKTFIHGDFVATTEELLDELLKRLRKKL [E5S] | 1.31 |
| SIEEMIKKAEEAKEKGKTFIHGDFVATTEELLDELLKRLRKKL [E5M] | 2.05 |
| SIEELIKKAEEAKEKGKTFIHGDFVATTEELLDELLKRLRKKL [E5L] | 2.35 |
| SIEEDIKKAEEAKEKGKTFIHGDFVATTEELLDELLKRLRKKL [E5D] | 1.23 |
| SIEEIIKKAEEAKEKGKTFIHGDFVATTEELLDELLKRLRKKL [E5I] | 2.4 |
| SIEEVIKKAEEAKEKGKTFIHGDFVATTEELLDELLKRLRKKL [E5V] | 2.13 |
| SIEETIKKAEEAKEKGKTFIHGDFVATTEELLDELLKRLRKKL [E5T] | 1.84 |

| Variant | folding stability dG [kcal/mol] |
| --- | --- |
| SIEEEIIKAEEAKEKGKTFIHGDFVATTEELLDELLKRLRKKL [K7I] | 1.01 |
| SIEEEIPKAEEAKEKGKTFIHGDFVATTEELLDELLKRLRKKL [K7P] | 0.656 |
| SIEEEIFKAEEAKEKGKTFIHGDFVATTEELLDELLKRLRKKL [K7F] | 0.95 |
| SIEEEIQKAEEAKEKGKTFIHGDFVATTEELLDELLKRLRKKL [K7Q] | 1.25 |
| SIEEEITKAEEAKEKGKTFIHGDFVATTEELLDELLKRLRKKL [K7T] | 0.994 |
| SIEEEIYKAEEAKEKGKTFIHGDFVATTEELLDELLKRLRKKL [K7Y] | 0.923 |
| SIEEEINKAEEAKEKGKTFIHGDFVATTEELLDELLKRLRKKL [K7N] | 0.942 |
| SIEEEIVKAEEAKEKGKTFIHGDFVATTEELLDELLKRLRKKL [K7V] | 0.878 |
| SIEEEIHKAEEAKEKGKTFIHGDFVATTEELLDELLKRLRKKL [K7H] | 1.06 |
| SIEEEICKAEEAKEKGKTFIHGDFVATTEELLDELLKRLRKKL [K7C] | 1.38 |
| SIEEEIAKAEEAKEKGKTFIHGDFVATTEELLDELLKRLRKKL [K7A] | 1.31 |
| SIEEEILKAEEAKEKGKTFIHGDFVATTEELLDELLKRLRKKL [K7L] | 1.14 |
| SIEEEIEKAEEAKEKGKTFIHGDFVATTEELLDELLKRLRKKL [K7E] | 0.935 |
| SIEEEIGKAEEAKEKGKTFIHGDFVATTEELLDELLKRLRKKL [K7G] | 0.824 |
| SIEEEIRKAEEAKEKGKTFIHGDFVATTEELLDELLKRLRKKL [K7R] | 1.6 |
| SIEEEIMKAEEAKEKGKTFIHGDFVATTEELLDELLKRLRKKL [K7M] | 1.16 |
| SIEEEISKAEEAKEKGKTFIHGDFVATTEELLDELLKRLRKKL [K7S] | 0.891 |
| SIEEEIDKAEEAKEKGKTFIHGDFVATTEELLDELLKRLRKKL [K7D] | 0.626 |
| SIEEEIWKAEEAKEKGKTFIHGDFVATTEELLDELLKRLRKKL [K7W] | 0.964 |
